Literature values, collected in paper PMC5394133 (Clinical Drug Investigation, 2017).
Read-outs that look alike come from different tables or passages of the source.

Details: for Maximum concentration, mean / Total exposure, mean: total insulin concentration

Substance | Maximum concentration, ratio thigh/abdomen (0.2 U/kg s.c.) | Maximum concentration, ratio upper arm/abdomen (0.2 U/kg s.c.) | Total exposure, ratio thigh/abdomen (0.2 U/kg s.c.) | Total exposure, ratio upper arm/abdomen (0.2 U/kg s.c.) | Maximum concentration, mean (0.2 U/kg s.c., abdomen) | Total exposure, mean (0.2 U/kg s.c., abdomen) | Maximum concentration, mean (0.2 U/kg s.c., thigh) | Total exposure, mean (0.2 U/kg s.c., thigh) | Maximum concentration, mean (0.2 U/kg s.c., upper arm) | Total exposure, mean (0.2 U/kg s.c., upper arm) | Maximum concentration, ratio thigh/abdomen (s.c.) | Maximum concentration, ratio upper arm/abdomen (s.c.) | Total exposure, ratio thigh/abdomen (s.c.) | Total exposure, ratio upper arm/abdomen (s.c.) | early exposure within 1 h after administration, lower for the thigh than for the abdomen (s.c.) | early exposure within 1 h after administration, lower for the upper arm than for the abdomen (s.c.)
Insulin aspart | 84% | 101% | 97% | 105% | 501 pmol/L | 1.3 nM·h | 422 pmol/L | 1.265 nM·h | 506 pmol/L | 1.361 nM·h |  |  |  |  |  | 
Insulin glulisine |  |  |  |  |  |  |  |  |  |  | 68% | 82% | 93% | 97% | ~ 40% | ~ 20%
Insulin lispro | 78% | 67% | 92% | 95% | 589 pmol/L | 1.388 nM·h | 458 pmol/L | 1.277 nM·h | 395 pmol/L | 1.313 nM·h |  |  |  |  |  | 
